{"source": "patent US12364733B1", "about": "“Method for treating septic shock” (Inotrem, priority 2018, dated 2025)", "key": {"[1]": {"test_system": "septic shock patients", "assay": "Phase IIa clinical trial with nangibotide in septic shock patients (NCT03158948): safety, treatment emergent adverse events", "assay_type": "in vivo, human", "details": "for safety and tolerability: up to 3 mg/kg/h", "method": "This was a European prospective, […], multinational study in 14 centers from 4 countries (France, Belgium, the Netherlands, and Spain). Patients were recruited from July 2017 to June 2018. The study was conducted in accordance with the principles set forth in the Declaration of Helsinki and subsequent amendments, the Guidelines of the International Conference on Harmonization on GCP, as well as the requirements of national drug and data protection laws and other applicable regulatory requirements.\nThis was a randomized, double-blind, two-stage, placebo-controlled study. As described in FIG. 7, the study was composed of 2 stages with a similar treatment regimen, in which 0.3, 1.0 or 3.0 mg/kg/h of nangibotide (corresponding to peptide LR12, having an amino acid sequence as set forth in SEQ ID NO: 9, also known as motrem) was tested versus placebo. All patients with a diagnosis of septic shock were considered for study participation. All potential study patients underwent standard care management procedures. Patients with evidence of septic shock according to the Sepsis-3 definition (Singer et al, JAMA 2016) were considered for inclusion (i.e., patients suffering from sepsis and having (i) persisting hypotension requiring vasopressors to maintain their mean arterial pressure ≥65 mm Hg and (ii) a serum lactate level >2 mmol/L (18 mg/dL) despite adequate volume resuscitation).\nAfter screening for eligibility, patients were randomized to one of the treatment arms. Then, they received either a 5 mg/kg loading dose of nangibotide over 15 minutes followed by a continuous intravenous (i.v.) infusion of nangibotide or a matching placebo on top of standard of care. Treatment with study drug was initiated as early as possible, but no later than 24 hours after the onset of septic shock, defined by the start of vasopressor therapy. Patients were treated until 12 (±2) hours after the resolution of their septic shock (defined as vasopressor withdrawal) with a maximum treatment duration of 5 days (120 hours).\nStage 1 was performed to investigate ascending doses of nangibotide or placebo in a sequential design in cohorts of 4 patients (3:1 randomization). After completion of a cohort, safety and PK data were reviewed by an independent data safety monitoring board (DSMB) and the study could progress to the next cohort/stage. Stage 2 investigated 3 doses of nangibotide in a randomized, balanced, parallel-group design involving up to 3 doses of nangibotide and a placebo arm.\nAdverse events (AEs) were coded using the MedDRA dictionary version 18.1. Treatment-emergent adverse events (TEAEs) were summarized and listed. Analysis was performed in 49 septic shock patients. The demographic and baseline characteristics were summarized in a descriptive fashion within each population: categorical variables were summarized by contingency tables (frequencies and percentages). sTREM-1 levels at day 1 were also described (mean, standard deviation, standard error, median, quartiles and range, minimum and maximum values). Mortality rates were reported by frequency and percentage. For continuous endpoints, i.e., the sequential organ failure assessment (SOFA), missing data were imputed using LOCF (Last Observation Carry-Forward). For time-to-event analyses, i.e., duration of invasive mechanical ventilation (IMV), duration of continuous renal replacement therapy (CRRT), survival, censored data techniques were utilized. In addition, a sensitivity analysis of time to event data (except survival) was performed using censoring at maximum limit for the corresponding observation period (i.e., either day 28 or day 90). […] The following comparisons were made: each nangibotide dose arm to placebo, all nangibotide doses combined versus placebo, and dose-response using an ordinal trend test. […]"}, "[2]": {"test_system": "circulating levels of endothelial injury markers, inflammatory markers and sTREM-1", "assay": "Phase IIa clinical trial with nangibotide: pharmacodynamic markers", "assay_type": "in vivo, human", "method": "The quantitative determination of sTREM-1 was carried out using the method described in Example 2.\nAdverse events (AEs) were coded using the MedDRA dictionary version 18.1. Treatment-emergent adverse events (TEAEs) were summarized and listed. Analysis was performed in 49 septic shock patients. The demographic and baseline characteristics were summarized in a descriptive fashion within each population: categorical variables were summarized by contingency tables (frequencies and percentages). sTREM-1 levels at day 1 were also described (mean, standard deviation, standard error, median, quartiles and range, minimum and maximum values). Mortality rates were reported by frequency and percentage. For continuous endpoints, i.e., the sequential organ failure assessment (SOFA), missing data were imputed using LOCF (Last Observation Carry-Forward). For time-to-event analyses, i.e., duration of invasive mechanical ventilation (IMV), duration of continuous renal replacement therapy (CRRT), survival, censored data techniques were utilized. In addition, a sensitivity analysis of time to event data (except survival) was performed using censoring at maximum limit for the corresponding observation period (i.e., either day 28 or day 90). […] The following comparisons were made: each nangibotide dose arm to placebo, all nangibotide doses combined versus placebo, and dose-response using an ordinal trend test. Exploratory composite endpoint: incidence (number and proportion) of patients alive at day 28 and free of vasopressor, free of IMV and free of CRRT were summarized by treatment and compared between treatments with a Fisher's exact test. For pharmacodynamic markers, log transformed data were represented as percentage change from baseline at day 5 or End of Infusion (EOI) if end of infusion was stopped before day 5. […] “All nangibotide” refers to analyses obtained by pooling data from 0.3, 1 and 3 mg/kg/h nangibotide-treated groups."}}, "note": "Entries after “also recorded” stand apart in the source; their conditions may differ.", "data": [{"substance": "nangibotide (LQEEDAGEYGCM; TLT-1 peptide)", "values": [{"measurement": "All TEAEs leading to treatment withdrawal, % of all TEAEs", "setting": "[1]; 0.3 mg/kg/h", "result": "(0.0%)"}, {"measurement": "All TEAEs leading to treatment withdrawal, number", "setting": "[1]; 0.3 mg/kg/h", "result": 0}, {"measurement": "All TEAEs related to study drug (by investigator), % of all TEAEs", "setting": "[1]; 0.3 mg/kg/h", "result": "(0.0%)"}, {"measurement": "All TEAEs related to study drug (by investigator), number", "setting": "[1]; 0.3 mg/kg/h", "result": 0}, {"measurement": "All TEAEs with intensity severe, % of all TEAEs", "setting": "[1]; 0.3 mg/kg/h", "result": "(21.4%)"}, {"measurement": "All TEAEs with intensity severe, number", "setting": "[1]; 0.3 mg/kg/h", "result": 12}, {"measurement": "All serious TEAEs (including death), % of all TEAEs", "setting": "[1]; 0.3 mg/kg/h", "result": "(8.9%)"}, {"measurement": "All serious TEAEs (including death), number", "setting": "[1]; 0.3 mg/kg/h", "result": 5}, {"measurement": "All TEAEs leading to treatment withdrawal, % of all TEAEs", "setting": "[1]; 1.0 mg/kg/h", "result": "(0.0%)"}, {"measurement": "All TEAEs leading to treatment withdrawal, number", "setting": "[1]; 1.0 mg/kg/h", "result": 0}, {"measurement": "All TEAEs related to study drug (by investigator), % of all TEAEs", "setting": "[1]; 1.0 mg/kg/h", "result": "(7.1%)"}, {"measurement": "All TEAEs related to study drug (by investigator), number", "setting": "[1]; 1.0 mg/kg/h", "result": 4}, {"measurement": "All TEAEs with intensity severe, % of all TEAEs", "setting": "[1]; 1.0 mg/kg/h", "result": "(23.2%)"}, {"measurement": "All TEAEs with intensity severe, number", "setting": "[1]; 1.0 mg/kg/h", "result": 13}, {"measurement": "All serious TEAEs (including death), % of all TEAEs", "setting": "[1]; 1.0 mg/kg/h", "result": "(5.4%)"}, {"measurement": "All serious TEAEs (including death), number", "setting": "[1]; 1.0 mg/kg/h", "result": 3}, {"measurement": "All TEAEs leading to treatment withdrawal, % of all TEAEs", "setting": "[1]; 3.0 mg/kg/h", "result": "(0.0%)"}, {"measurement": "All TEAEs leading to treatment withdrawal, number", "setting": "[1]; 3.0 mg/kg/h", "result": 0}, {"measurement": "All TEAEs related to study drug (by investigator), % of all TEAEs", "setting": "[1]; 3.0 mg/kg/h", "result": "(0.0%)"}, {"measurement": "All TEAEs related to study drug (by investigator), number", "setting": "[1]; 3.0 mg/kg/h", "result": 0}, {"measurement": "All TEAEs with intensity severe, % of all TEAEs", "setting": "[1]; 3.0 mg/kg/h", "result": "(13.1%)"}, {"measurement": "All TEAEs with intensity severe, number", "setting": "[1]; 3.0 mg/kg/h", "result": 8}, {"measurement": "All serious TEAEs (including death), % of all TEAEs", "setting": "[1]; 3.0 mg/kg/h", "result": "(8.2%)"}, {"measurement": "All serious TEAEs (including death), number", "setting": "[1]; 3.0 mg/kg/h", "result": 5}, {"measurement": "adverse events related to nangibotide treatment at the highest dose", "setting": "[1]; highest dose", "result": "no adverse events related to nangibotide treatment were observed"}, {"measurement": "AEs related to infections and cardiac disorders, nangibotide groups vs placebo", "setting": "[1]; human, in vivo", "result": "proportionally higher in the nangibotide groups"}, {"measurement": "incidence of atrial fibrillation and thrombocytopenia, nangibotide groups vs placebo", "setting": "[1]; human, in vivo", "result": "proportionally higher in the nangibotide groups"}, {"measurement": "number of SAEs/AEs and number of patients with SAEs/AEs, nangibotide groups vs placebo group", "setting": "[1]; human, in vivo", "result": "comparable"}, {"measurement": "suspected unexpected serious adverse reactions (SUSARs), number", "setting": "[1]; nangibotide-treated group, without obvious explanation", "result": "Two"}, {"measurement": "adverse events leading to treatment withdrawal", "setting": "[1]; septic shock patients, 0.3-3.0 mg/kg/h", "result": "No adverse events (AEs) led to treatment withdrawal"}, {"measurement": "safety and tolerability", "setting": "[1]; septic shock patients", "result": "safe and well-tolerated"}, {"measurement": "safety and tolerability", "setting": "[1]; septic shock patients, listed as nangibotide", "result": "safe and well tolerated; also recorded: well-tolerated at all doses tested"}, {"measurement": "Ang-2 level, change from baseline", "setting": "[2]; G2 subgroup (baseline sTREM-1 above the median 433 pg/mL) vs whole population and G1", "result": "trend toward a more pronounced decrease"}, {"measurement": "IL-6 level, change from baseline", "setting": "[2]; G2 subgroup vs whole population and G1", "result": "the same trend was observed"}, {"measurement": "circulating levels of endothelial injury markers (Ang-2, VCAM-1, VGEFR-1 and E-selectin), inflammatory markers (IL-8, IL-10, MCP-1, TNF-α and IL-10) and sTREM-1", "setting": "[2]; during the treatment, nangibotide-treated patients", "result": "trend towards a decrease"}, {"measurement": "sTREM-1 kinetics over time", "setting": "[2]; subgroup of patients with high baseline sTREM-1 values", "result": "trend towards a decrease in sTREM-1"}, {"measurement": "Ang-2 level, treatment effect", "setting": "[2]; whole population", "result": "no apparent treatment effect"}, {"measurement": "sTREM-1 kinetics over time", "setting": "[2]; whole population, day 5/EOI from baseline", "result": "no apparent changes over time"}]}]}
